Results published in patent CN112063765A.

What was measured:
[1] = molecular target: H1N1特异性的表位肽 (SEQ ID NO:4) (Influenza A virus H1N1); assay: indirect ELISA, titre of purified ascites antibody
[2] = molecular target: H1N1特异性的表位肽 (SEQ ID NO:4) (Influenza A virus H1N1)

B1: 3E6单克隆抗体 (antibody, V domains shown)
VH: EVQLEESGTELARPGASVKLALKASGYIFSSYSGQWIKQRPGAGLELIGYPYPGWIDTRYTQKLTGKATLTADKSSSTLYMQLSSLASEDSAVAYCAGSYFSSDAWGLGTTLAVSS
VL: DIVLTQSPALMAASAGEKVTITCAVSQSIQSGYLAWYQQKSGISPKPWIYDTSNQAGGVPARFSGAGSGTSYSLTITSMEAEDAATYYCAQGTTSPLSFGAGTKLELK
OD492 at dilution 1:1000 [1]: 4.91 OD492
OD492 at dilution 1:10000 [1]: 1.89 OD492
OD492 at dilution 1:100000 [1]: 0.455 OD492
OD492 at dilution 1:1000000 [1]: 0.121 OD492
OD492 at dilution 1:10000000 [1]: 0.0632 OD492
Kd [2]: 480 pM
